Source: the supplement of paper PMC9112550, “Optimization of the antimicrobial peptide Bac7 by deep mutational scanning” (BMC Biology, 2022)

System: Escherichia coli TOP10
Assay: shrunken log2 fold change of peptide-encoding DNA abundance (4.5 h post-induction vs induction); higher = less antimicrobial activity (less host growth inhibition)
Details: time post-induction: 4.5 h; library: site-saturation at positions 5, 18, 19, 20
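Further: peptides expressed intracellularly from a pBAD plasmid library in pooled LB shake-flask culture, induced with 0.3% L-arabinose, DNA abundance read by NGS, three biological replicates, DESeq2 with apeglm shrinkage.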

| Sequence | shrunken log2 fold change |
| --- | --- |
| RRIRGRPPRLPRPRPRPKHTPRP | 0.743 |
| RRIRHRPPRLPRPRPRPSSHPRP | -1.3 |
| RRIRKRPPRLPRPRPRPFAFPRP | 0.272 |
| RRIRNRPPRLPRPRPRPVKMPRP | -0.107 |
| RRIRVRPPRLPRPRPRPTPAPRP | 0.448 |
| RRIRPRPPRLPRPRPRPRAAPRP | 0.611 |
| RRIRTRPPRLPRPRPRPIPPPRP | 0.384 |
| RRIRGRPPRLPRPRPRPIYSPRP | -0.05 |
| RRIRWRPPRLPRPRPRPEVEPRP | -0.016 |
| RRIRHRPPRLPRPRPRPCQFPRP | -0.0209 |
| RRIRWRPPRLPRPRPRPWKWPRP | -0.0893 |
| RRIRIRPPRLPRPRPRPVAIPRP | 0.0188 |
| RRIRRRPPRLPRPRPRPSYYPRP | -0.0156 |
| RRIRTRPPRLPRPRPRPKCPPRP | 0.281 |
| RRIRARPPRLPRPRPRPNKFPRP | -0.3 |
| RRIRIRPPRLPRPRPRPLLWPRP | 0.0456 |
| RRIRRRPPRLPRPRPRPWMQPRP | 0.0811 |
| RRIRERPPRLPRPRPRPNHFPRP | -0.799 |
| RRIRSRPPRLPRPRPRPDHDPRP | -0.357 |
| RRIRKRPPRLPRPRPRPVHCPRP | 0.0295 |
| RRIRFRPPRLPRPRPRPNGVPRP | -0.0018 |
| RRIRGRPPRLPRPRPRPRWEPRP | 0.946 |
| RRIRRRPPRLPRPRPRPKEKPRP | -0.00936 |
| RRIRDRPPRLPRPRPRPGKAPRP | 0.00543 |
| RRIRYRPPRLPRPRPRPWWFPRP | -0.195 |

| Sequence | shrunken log2 fold change |
| --- | --- |
| RRIRNRPPRLPRPRPRPMCTPRP | -0.124 |
| RRIRCRPPRLPRPRPRPARKPRP | 0.21 |
| RRIRSRPPRLPRPRPRPAPYPRP | 0.265 |
| RRIRQRPPRLPRPRPRPGYFPRP | 0.0104 |
| RRIRPRPPRLPRPRPRPQRFPRP | 0.0622 |
| RRIRNRPPRLPRPRPRPDDRPRP | 0.0384 |
| RRIRDRPPRLPRPRPRPFQMPRP | -0.57 |
| RRIRYRPPRLPRPRPRPALVPRP | 0.112 |
| RRIRHRPPRLPRPRPRPWYWPRP | -0.115 |
| RRIRMRPPRLPRPRPRPNVGPRP | -0.0241 |
| RRIRDRPPRLPRPRPRPLINPRP | 0.125 |
| RRIRTRPPRLPRPRPRPENYPRP | -0.00973 |
| RRIRDRPPRLPRPRPRPWHNPRP | -0.144 |
| RRIRGRPPRLPRPRPRPPNIPRP | 0.083 |
| RRIRRRPPRLPRPRPRPVKKPRP | 0.0447 |
| RRIRSRPPRLPRPRPRPPENPRP | 0.679 |
| RRIRKRPPRLPRPRPRPEVMPRP | 0.148 |
| RRIRVRPPRLPRPRPRPWDYPRP | -0.0898 |
| RRIRYRPPRLPRPRPRPGDNPRP | -0.0446 |
| RRIRVRPPRLPRPRPRPNRTPRP | 0.0905 |
| RRIRARPPRLPRPRPRPQWKPRP | 0.179 |
| RRIRCRPPRLPRPRPRPAMTPRP | -0.0039 |
| RRIRARPPRLPRPRPRPGWQPRP | 0.0839 |
| RRIRKRPPRLPRPRPRPCWAPRP | 0.114 |
| RRIRARPPRLPRPRPRPLDTPRP | 0.39 |

| Sequence | shrunken log2 fold change |
| --- | --- |
| RRIRERPPRLPRPRPRPLNAPRP | -0.113 |
| RRIRPRPPRLPRPRPRPDRCPRP | 0.584 |
| RRIRERPPRLPRPRPRPSDWPRP | 0.0574 |
| RRIRDRPPRLPRPRPRPPHQPRP | -0.022 |
| RRIRRRPPRLPRPRPRPHHIPRP | -0.637 |
| RRIRNRPPRLPRPRPRPSCLPRP | -0.4 |
| RRIRARPPRLPRPRPRPSDMPRP | 0.16 |
| RRIRLRPPRLPRPRPRPWKAPRP | -0.0344 |
| RRIRLRPPRLPRPRPRPNWKPRP | -0.225 |
| RRIRCRPPRLPRPRPRPGEEPRP | 0.135 |
| RRIRQRPPRLPRPRPRPGHCPRP | 0.217 |
| RRIRARPPRLPRPRPRPLYWPRP | -0.194 |
| RRIRCRPPRLPRPRPRPETEPRP | -0.0921 |
| RRIRWRPPRLPRPRPRPWSVPRP | -0.174 |
| RRIRIRPPRLPRPRPRPRQKPRP | -0.028 |
| RRIRMRPPRLPRPRPRPWRIPRP | -0.0845 |
| RRIRQRPPRLPRPRPRPMVKPRP | 0.0691 |
| RRIRMRPPRLPRPRPRPHHCPRP | -0.27 |
| RRIRLRPPRLPRPRPRPIMIPRP | -0.286 |
| RRIRHRPPRLPRPRPRPKGRPRP | 0.0526 |
| RRIRWRPPRLPRPRPRPFRHPRP | -0.0307 |
| RRIRHRPPRLPRPRPRPPDWPRP | 0.536 |
| RRIRARPPRLPRPRPRPYEYPRP | -0.04 |
| RRIRVRPPRLPRPRPRPWTVPRP | -0.782 |
| RRIRSRPPRLPRPRPRPHESPRP | -0.15 |

| Sequence | shrunken log2 fold change |
| --- | --- |
| RRIRERPPRLPRPRPRPEAVPRP | 0.292 |
| RRIRLRPPRLPRPRPRPTWSPRP | 0.201 |
| RRIRPRPPRLPRPRPRPIWSPRP | 0.0653 |
| RRIRCRPPRLPRPRPRPIPYPRP | -0.0796 |
| RRIRWRPPRLPRPRPRPHDNPRP | -0.114 |
| RRIRDRPPRLPRPRPRPFCNPRP | -0.0411 |
| RRIRPRPPRLPRPRPRPIELPRP | -0.0296 |
| RRIRERPPRLPRPRPRPMFNPRP | -0.607 |
| RRIRERPPRLPRPRPRPGWFPRP | -0.249 |
| RRIRFRPPRLPRPRPRPRTHPRP | 0.114 |
| RRIRDRPPRLPRPRPRPTDLPRP | -0.0718 |
| RRIRERPPRLPRPRPRPHKLPRP | -0.635 |
| RRIRYRPPRLPRPRPRPYMGPRP | -0.019 |
| RRIRARPPRLPRPRPRPIQFPRP | 0.166 |
| RRIRHRPPRLPRPRPRPKKFPRP | -0.123 |
| RRIRQRPPRLPRPRPRPPSAPRP | 0.5 |
| RRIRLRPPRLPRPRPRPNGMPRP | -0.0765 |
| RRIRRRPPRLPRPRPRPDYKPRP | -0.284 |
| RRIRRRPPRLPRPRPRPQKRPRP | 0.13 |
| RRIRTRPPRLPRPRPRPGPFPRP | 0.102 |
| RRIRQRPPRLPRPRPRPGPKPRP | -0.0957 |
| RRIRTRPPRLPRPRPRPYMRPRP | -0.48 |
| RRIRLRPPRLPRPRPRPPEIPRP | 0.196 |
| RRIRIRPPRLPRPRPRPDRYPRP | -0.032 |
| RRIRQRPPRLPRPRPRPMIYPRP | -0.0652 |

| Sequence | shrunken log2 fold change |
| --- | --- |
| RRIRMRPPRLPRPRPRPGFWPRP | 0.836 |
| RRIRMRPPRLPRPRPRPWDIPRP | 0.232 |
| RRIRLRPPRLPRPRPRPRLTPRP | 0.143 |
| RRIRYRPPRLPRPRPRPDVIPRP | -0.0708 |
| RRIRGRPPRLPRPRPRPEDQPRP | 0.0373 |
| RRIRERPPRLPRPRPRPPAPPRP | 0.569 |
| RRIRGRPPRLPRPRPRPNDNPRP | 0.19 |
| RRIRFRPPRLPRPRPRPIASPRP | -0.015 |
| RRIRPRPPRLPRPRPRPKKWPRP | -0.0589 |
| RRIRSRPPRLPRPRPRPFFCPRP | -0.11 |
| RRIRCRPPRLPRPRPRPSRGPRP | 0.333 |
| RRIRSRPPRLPRPRPRPHDHPRP | -0.23 |
| RRIRYRPPRLPRPRPRPVNHPRP | -0.073 |
| RRIRLRPPRLPRPRPRPMILPRP | -0.677 |
| RRIRSRPPRLPRPRPRPGERPRP | 0.637 |
| RRIRMRPPRLPRPRPRPAELPRP | 0.604 |
| RRIRCRPPRLPRPRPRPWNHPRP | -0.939 |
| RRIRPRPPRLPRPRPRPCVLPRP | -0.0304 |
| RRIRPRPPRLPRPRPRPYNIPRP | -1.66 |
| RRIRVRPPRLPRPRPRPWWDPRP | 0.00445 |
| RRIRQRPPRLPRPRPRPPWLPRP | 0.307 |
| RRIRNRPPRLPRPRPRPPYVPRP | -0.0374 |
| RRIRMRPPRLPRPRPRPRPEPRP | 1.35 |
| RRIRWRPPRLPRPRPRPYCDPRP | -0.218 |
| RRIRYRPPRLPRPRPRPPRHPRP | 0.00412 |

| Sequence | shrunken log2 fold change |
| --- | --- |
| RRIRWRPPRLPRPRPRPWGWPRP | 0.276 |
| RRIRFRPPRLPRPRPRPTHHPRP | 0.781 |
| RRIRFRPPRLPRPRPRPFMCPRP | -0.98 |
| RRIRRRPPRLPRPRPRPRNYPRP | 0.143 |
| RRIRMRPPRLPRPRPRPQTWPRP | 0.39 |
| RRIRTRPPRLPRPRPRPFIDPRP | -1.15 |
| RRIRPRPPRLPRPRPRPNKDPRP | -0.534 |
| RRIRQRPPRLPRPRPRPVCRPRP | 0.198 |
| RRIRDRPPRLPRPRPRPPCMPRP | -0.317 |
| RRIRNRPPRLPRPRPRPDTGPRP | -0.0135 |
| RRIRQRPPRLPRPRPRPYERPRP | 0.074 |
| RRIRTRPPRLPRPRPRPFYYPRP | -0.55 |
| RRIRIRPPRLPRPRPRPKGIPRP | -0.13 |
| RRIRARPPRLPRPRPRPYWCPRP | -0.33 |
| RRIRPRPPRLPRPRPRPTPPPRP | 0.477 |
| RRIRVRPPRLPRPRPRPTDGPRP | 0.0478 |
| RRIRFRPPRLPRPRPRPEINPRP | -0.00788 |
| RRIRFRPPRLPRPRPRPLHVPRP | -0.208 |
| RRIRTRPPRLPRPRPRPTEWPRP | 0.0143 |
| RRIRGRPPRLPRPRPRPMSDPRP | 0.34 |
| RRIRFRPPRLPRPRPRPVRDPRP | 1.66 |
| RRIRSRPPRLPRPRPRPYHTPRP | -0.652 |
| RRIRTRPPRLPRPRPRPCIMPRP | -0.2 |
| RRIRTRPPRLPRPRPRPGYGPRP | -0.139 |
| RRIRARPPRLPRPRPRPLLHPRP | 0.264 |
